{
  "source": "paper PMC4841471",
  "about": "(Nature, 2015)",
  "target": "the molecule itself",
  "test": "crystal structure",
  "data": [
    {"protein": "Two-pore channel TPC1 from Arabidopsis thaliana (AtTPC1) (natural protein, UniProt Q94KI8 1-733, looked up) MEDPLIGRDSLGGGGTDRVRRSEAITHGTPFQKAAALVDLAEDGIGLPVEILDQSSFGESARYYFIFTRLDLIWSLNYFALLFLNFFEQPLWCEKNPKPSCKDRDYYYLGELPYLTNAESIIYEVITLAILLVHTFFPISYEGSRIFWTSRLNLVKVACVVILFVDVLVDFLYLSPLAFDFLPFRIAPYVRVIIFILSIRELRDTLVLLSGMLGTYLNILALWMLFLLFASWIAFVMFEDTQQGLTVFTSYGATLYQMFILFTTSNNPDVWIPAYKSSRWSSVFFVLYVLIGVYFVTNLILAVVYDSFKEQLAKQVSGMDQMKRRMLEKAFGLIDSDKNGEIDKNQCIKLFEQLTNYRTLPKISKEEFGLIFDELDDTRDFKINKDEFADLCQAIALRFQKEEVPSLFEHFPQIYHSALSQQLRAFVRSPNFGYAISFILIINFIAVVVETTLDIEESSAQKPWQVAEFVFGWIYVLEMALKIYTYGFENYWREGANRFDFLVTWVIVIGETATFITPDENTFFSNGEWIRYLLLARMLRLIRLLMNVQRYRAFIATFITLIPSLMPYLGTIFCVLCIYCSIGVQVFGGLVNAGNKKLFETELAEDDYLLFNFNDYPNGMVTLFNLLVMGNWQVWMESYKDLTGTWWSITYFVSFYVITILLLLNLVVAFVLEAFFTELDLEEEEKCQGQDSQEKRNRRRSAGSKSRSQRVDTLLHHMLGDELSKPECSTSDT", "values": [
      {"measurement": "stoichiometry N", "value": 2}
    ]}
  ]
}
